Results reported in patent US5972678A, “Animal 2-5A dependent RNases” (Cleveland Clinic Foundation, priority 1995, dated 1999).

Tests used:
[1] = test system: 2-5A-dependent RNase; details: cited from earlier work
[2] = test system: 2-5A probe; assay: 2-5A binding activity of nested 3'-deletion mutants, filter binding assay and uv crosslinking assay; details: protein expressed in wheat germ extract
Description: See Example and Knight et al. 1980). The positions of the P-loop motifs and the lengths of the translation products are indicated. Clone ZB1 encodes for amino acids designated as 1-656 in Table II, except for the last 5 amino acid residues which are Lys, Pro, Leu, Ser, and Gly. Clone ZB2 encodes for amino acids designated as 1-619 in Table II. Clone ZB3 encodes for amino acids designated as 1-515 in Table II. Clone ZB5 encodes for amino acids designated as 1-474 in Table II. Clone ZB9 encodes for amino acids designated as 1-403 in Table II. Clone ZB10 encodes for amino acids designated as 1-365 in Table II. Clone ZB13 encodes for amino acids designated as 1-294 in Table II. Clone ZB14 encodes for amino acids designated as 1-265 in Table II. Clone ZB15 encodes for amino acids designated as 1-218 in Table II.
To further define sequences involved in 2-5A binding, nested 3'-deletions of the murine 2-5A-dependent RNase cDNA, clone ZB1, are constructed, transcribed in vitro, and expressed in a wheat germ extract. […] The levels of 2-5A binding activity are determined with the 2-5A probe in both a filter binding assay, Knight, M. et al., Nature, 288: 189-192 (1980), and the uv crosslinking assay, Nolan-Sorden, N. L. et al., Anal. Biochem., 184: 298-304 (1990), with similar results. […]

[3] = test system: poly(U); assay: ribonuclease assay with 2-5A-cellulose, poly(U) substrate; format: biochemical
Procedure: (§1) FIG. 5B is reticulocyte lysate pretreated to remove endogeous 2-5A-dependent RNase and is incubated in the absence of added mRNA (.box-solid.), in the presence of human 2-5A-dependent RNase mRNA without inhibitor (.smallcircle., .quadrature.) or in the presence of both 2-5A-dependent RNase mRNA and cycloheximide (50 μg per ml (.circle-solid.). See Example. Subsequently, the recombinant 2-5A-dependent RNase (or controls) is adsorbed to 2-5A-cellulose and ribonuclease assays are performed after extensive washing of the matrix to reduce general nuclease activity. Radiolabeled substrate RNA was either poly(U) (.smallcircle., .circle-solid., .box-solid.) or poly(C) (.quadrature.).
(§2) Ribonuclease assays with recombinant 2-5A-dependent RNase are performed after immobilizing and purifying the translation product on the activating affinity matrix, 2-5A-cellulose. It was previously shown that murine L cell 2-5A-dependent RNase bound to 2-5A-cellulose, resulting in ribonuclease activity against poly(U) but not poly(c). […]
(§3) Briefly, lysates are adsorbed to about […] of 2-5A-cellulose on ice for about two hours. […] The matrix is then incubated with poly(U)-[^32 P]Cp or poly(C)-[^32 P]Cp (both at about 16 μM in nucleotide equivalents) at about 30° C. and the levels of acid-precipitable radioactive RNA are determined by filtration on glass-fiber filters.

[4] = test system: poly(C); assay: ribonuclease assay with 2-5A-cellulose, poly(C) substrate; format: biochemical; details: isolated on 2-5A-cellulose
Procedure: as §1, §2, §3

Nc1ncnc2c1ncn2[C@@H]1O[C@H](COP(=O)(O)OP(=O)(O)OP(=O)(O)O)[C@@H](O)[C@H]1O [ATP]
stimulatory effect on 2-5A-dependent RNase activity [1]: two-fold

B1: Clone ZB15: murine 2-5A-dependent RNase deletion mutant, amino acids 1 to 218, both P-loop motifs deleted (protein, UniProt Q05921 1-218, looked up, fragment)
chain: METPDYNTPQGGTPSAGSQRTVVEDDSSLIKAVQKGDVVRVQQLLEKGADANACEDTWGWTPLHNAVQAGRVDIVNLLLSHGADPHRRKKNGATPFIIAGIQGDVKLLEILLSCGADVNECDENGFTAFMEAAERGNAEALRFLFAKGANVNLRRQTTKDKRRLKQGGATALMSAAEKGHLEVLRILLNDMKAEVDARDNMGRNALIRTLLNWDCENV
2-5A binding activity (in words) [2]: completely lacking in 2-5A binding activity

B2: recombinant human 2-5A-dependent RNase: full-length human 2-5A-dependent RNase, amino acids 1-741 in Table I, produced in vitro in reticulocyte lysate (protein, UniProt Q05823 1-741, looked up)
chain: MESRDHNNPQEGPTSSSGRRAAVEDNHLLIKAVQNEDVDLVQQLLEGGANVNFQEEEGGWTPLHNAVQMSREDIVELLLRHGADPVLRKKNGATPFILAAIAGSVKLLKLFLSKGADVNECDFYGFTAFMEAAVYGKVKALKFLYKRGANVNLRRKTKEDQERLRKGGATALMDAAEKGHVEVLKILLDEMGADVNACDNMGRNALIHALLSSDDSDVEAITHLLLDHGADVNVRGERGKTPLILAVEKKHLGLVQRLLEQEHIEINDTDSDGKTALLLAVELKLKKIAELLCKRGASTDCGDLVMTARRNYDHSLVKVLLSHGAKEDFHPPAEDWKPQSSHWGAALKDLHRIYRPMIGKLKFFIDEKYKIADTSEGGIYLGFYEKQEVAVKTFCEGSPRAQREVSCLQSSRENSHLVTFYGSESHRGHLFVCVTLCEQTLEACLDVHRGEDVENEEDEFARNVLSSIFKAVQELHLSCGYTHQDLQPQNILIDSKKAAHLADFDKSIKWAGDPQEVKRDLEDLGRLVLYVVKKGSISFEDLKAQSNEEVVQLSPDEETKDLIHRLFHPGEHVRDCLSDLLGHPFFWTWESRYRTLRNVGNESDIKTRKSESEILRLLQPGPSEHSKSFDKWTTKINECVMKKMNKFYEKRGNFYQNTVGDLLKFIRNLGEHIDEEKHKKMKLKIGDPSLYFQKTFPDLVIYVYTKLQNTEYRKHFPQTHSPNKPQCDGAGGASGLASPGC
modifications: full-length
half-life of poly(U) degradation ([3]; enzyme from reticulocyte lysate bound to 2-5A-cellulose, about 30° C.): about 10 minutes | ribonuclease activity towards poly(U) (in words) ([3]; isolated on 2-5A-cellulose): potent ribonuclease activity | ribonuclease activity against poly(C) (in words) [4]: none
